Data taken from patent US20200024330A1.

How the values were obtained:
[1] = target: HIV-1 MGRM-F1-013 Env (pseudovirus) (HIV-1); assay: cell-based or functional assay
[2] = target: HIV-1 APV-13 envelope glycoprotein (Env) on pseudovirus (HIV-1); assay: cell-based or functional assay
[3] = target: HIV-1 APV-17 envelope glycoprotein (Env) on pseudovirus (HIV-1); assay: cell-based or functional assay
[4] = target: HIV-1 envelope glycoprotein (Env) of isolate MGRM-C-028, on pseudovirus (HIV-1); assay: cell-based or functional assay
[5] = target: HIV-1 envelope glycoprotein (Env) of isolate MGRM-C-017, on pseudovirus (HIV-1); assay: cell-based or functional assay
[6] = target: HIV-1 MGRM-C-026 Env (on pseudovirus) (HIV-1); assay: cell-based or functional assay
[7] = target: HIV-1 JRFL Env (on pseudovirus) (HIV-1); assay: cell-based or functional assay
[8] = target: HIV-1 envelope glycoprotein (Env) of isolate MGRM-C-019, on pseudovirus (HIV-1); assay: cell-based or functional assay
[9] = target: aMLV envelope protein (on pseudovirus, negative control) (aMLV); assay: cell-based or functional assay
[10] = target: HIV-1 envelope glycoprotein (Env) of isolate MGRM-C-023, on pseudovirus (HIV-1); assay: cell-based or functional assay
[11] = target: HIV-1 envelope glycoprotein (Env) of isolate MGRM-C-026, on pseudovirus (HIV-1); assay: cell-based or functional assay
[12] = target: HIV-1 MGRM-AG-005 Env (on pseudovirus) (HIV-1); assay: cell-based or functional assay
[13] = target: HIV-1 APV13 Env (on pseudovirus) (HIV-1); assay: cell-based or functional assay
[14] = target: HIV-1 Env of isolate MG RM-AG-013 (HIV-1); assay: cell-based or functional assay
[15] = target: HIV-1 Env of isolate MG RM-AG-005 (HIV-1); assay: cell-based or functional assay
[16] = target: HIV-1 Env of isolate MGRM-D-024 (HIV-1); assay: cell-based or functional assay
[17] = target: HIV-1 Env of isolate MGRM-F1-010 (HIV-1); assay: cell-based or functional assay
[18] = target: HIV-1 Env of isolate MGRM-D-028 (HIV-1); assay: cell-based or functional assay
[19] = target: HIV-1 Env of isolate MGRM-F1-018 (clade F), on pseudovirus (HIV-1); assay: cell-based or functional assay
[20] = target: HIV-1 envelope glycoprotein (Env) of isolate MGRM-Chronic-B-012, on pseudovirus (HIV-1); assay: cell-based or functional assay
[21] = target: HIV-1 Env of isolate MGRM-C-026 (subtype C), on pseudovirus (HIV-1); assay: cell-based or functional assay
[22] = target: HIV-1 Env of isolate MGRM-C-025 (subtype C), on pseudovirus (HIV-1); assay: cell-based or functional assay
[23] = target: HIV-1 envelope glycoprotein (Env) of isolate MGRM-Chronic-B-004, on pseudovirus (HIV-1); assay: cell-based or functional assay
[24] = target: HIV-1 Env of isolate MGRM-C-024 (subtype C), on pseudovirus (HIV-1); assay: cell-based or functional assay
[25] = target: HIV-1 Env of isolate MGRM-A-009 (HIV-1); assay: cell-based or functional assay
[26] = target: HIV-1 envelope glycoprotein (Env) of isolate 6535.3, on pseudovirus (HIV-1); assay: cell-based or functional assay
[27] = target: HIV-1 93IN905 envelope glycoprotein (Env) (HIV-1); assay: cell-based or functional assay
[28] = target: HIV-1 MGRM-D-001 envelope glycoprotein (Env) on pseudovirus (HIV-1); assay: cell-based or functional assay
[29] = target: HIV-1 JRFL envelope glycoprotein (Env) on pseudovirus (HIV-1); assay: cell-based or functional assay
[30] = target: JR-FL gp120 ΔV1/ΔV2 (HIV-1 (isolate JR-FL)); assay: ELISA on coated gp120; EC50 by nonlinear regression
[31] = target: WT JR-FL gp120 (HIV-1 (isolate JR-FL)); assay: as above
[32] = target: HIV-1 JR-CSF Env S393A (HIV-1 (isolate JR-CSF)) (UniProt P20871); assay: cell-based or functional assay
[33] = target: HIV-1 JR-CSF Env N302A (HIV-1 JR-CSF) (UniProt P20871); assay: cell-based or functional assay
[34] = target: HIV-1 JR-CSF Env N355A (HIV-1 isolate JR-CSF) (UniProt P20871); assay: cell-based or functional assay
[35] = target: HIV-1 JR-CSF Env N276A (HIV-1 JR-CSF) (UniProt P20871); assay: cell-based or functional assay
[36] = target: HIV-1 JR-CSF Env N396A (HIV-1 (isolate JR-CSF)) (UniProt P20871); assay: cell-based or functional assay
[37] = target: HIV-1 JR-CSF Env P299A (HIV-1 JR-CSF) (UniProt P20871); assay: cell-based or functional assay
[38] = target: HIV-1 JR-CSF Env I323A (HIV-1 isolate JR-CSF) (UniProt P20871); assay: cell-based or functional assay
[39] = target: HIV-1 JR-CSF Env R304A (HIV-1 JR-CSF) (UniProt P20871); assay: cell-based or functional assay
[40] = target: HIV-1 JR-CSF Env R327A (HIV-1 isolate JR-CSF) (UniProt P20871); assay: cell-based or functional assay

Sequence of PGT-143 (4980_N08) (antibody) (VH): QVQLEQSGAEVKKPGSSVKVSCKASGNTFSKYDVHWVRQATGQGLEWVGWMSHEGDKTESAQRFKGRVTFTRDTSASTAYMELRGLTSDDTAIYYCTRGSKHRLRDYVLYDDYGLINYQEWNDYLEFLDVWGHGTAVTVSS
Sequence of PGT-143 (4980_N08) (antibody) (VL): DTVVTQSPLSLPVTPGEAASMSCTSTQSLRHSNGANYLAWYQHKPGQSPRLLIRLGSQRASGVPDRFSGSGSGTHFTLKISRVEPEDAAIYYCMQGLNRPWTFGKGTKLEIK
Sequence of PGT-144 (4970_K22) (antibody) (VH): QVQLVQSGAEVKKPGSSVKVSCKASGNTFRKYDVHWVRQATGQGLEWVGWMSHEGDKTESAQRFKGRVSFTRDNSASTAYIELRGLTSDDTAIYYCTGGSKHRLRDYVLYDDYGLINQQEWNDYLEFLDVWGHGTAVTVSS
Sequence of PGT-144 (4970_K22) (antibody) (VL): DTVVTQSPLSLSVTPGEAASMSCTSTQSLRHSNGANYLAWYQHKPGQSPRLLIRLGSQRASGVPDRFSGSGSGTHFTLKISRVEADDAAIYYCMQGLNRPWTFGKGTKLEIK

## b12 (antibody)
[1]
  IC50 (µg/ml), pseudovirus neutralization: > 50 µg/mL
[2]
  IC90 (pseudovirus neutralization): > 50 µg/mL
[3]
  IC90 (pseudovirus neutralization): > 50 µg/mL

## PGT-143 (4980_N08) (antibody)
[4]
  IC50, pseudovirus neutralization: 12.4 µg/mL
[5]
  IC50, pseudovirus neutralization: 5.17 µg/mL
[6]
  IC50 (ug/ml), pseudovirus neutralization: > 10 µg/mL
[7]
  IC50 (ug/ml), pseudovirus neutralization: > 10 µg/mL
[8]
  IC50, pseudovirus neutralization: 0.004 µg/mL
[9]
  IC50 (ug/ml), pseudovirus neutralization: > 10 µg/mL
[10]
  IC50, pseudovirus neutralization: 0.148 µg/mL
[11]
  IC50, pseudovirus neutralization: > 50 µg/mL
[12]
  IC50 (ug/ml), pseudovirus neutralization: 0.244 µg/mL
[13]
  IC50 (ug/ml), pseudovirus neutralization: > 10 µg/mL

## 5145_B14 (PGT-127) (antibody)
[14]
  neutralization IC50: 0.018 µg/mL
[15]
  neutralization IC50: > 50 µg/mL

## VRC01 (antibody)
[16]
  IC50, pseudovirus neutralization: 0.366 µg/mL
[4]
  IC50, pseudovirus neutralization: 0.319 µg/mL
[5]
  IC50, pseudovirus neutralization: 0.366 µg/mL
[17]
  IC50, pseudovirus neutralization: 0.097 µg/mL
[8]
  IC50, pseudovirus neutralization: 1.13 µg/mL
[18]
  IC50, pseudovirus neutralization: 0.377 µg/mL
[10]
  IC50, pseudovirus neutralization: 0.077 µg/mL
[11]
  IC50, pseudovirus neutralization: 0.707 µg/mL

## PGV04 (antibody)
[16]
  IC50 (µg/mL), pseudovirus neutralization: > 50 µg/mL
[19]
  IC50 (µg/mL), single-round pseudovirus neutralization: 0.027 µg/mL
[20]
  IC50, pseudovirus neutralization: > 50 µg/mL
[21]
  IC50 (µg/mL), pseudovirus neutralization: 0.303 µg/mL
[22]
  IC50 (µg/mL), pseudovirus neutralization: > 50 µg/mL
[23]
  IC50, pseudovirus neutralization: 0.047 µg/mL
[24]
  IC50 (µg/mL), pseudovirus neutralization: > 50 µg/mL
[25]
  IC50: 0.033 µg/mL
[17]
  IC50 (µg/mL), pseudovirus neutralization: 0.184 µg/mL
[26]
  IC50, pseudovirus neutralization: 0.757 µg/mL
[18]
  IC50 (µg/mL), pseudovirus neutralization: 1.01 µg/mL

## PGT-144 (4970_K22) (antibody)
[4]
  IC50, pseudovirus neutralization: > 50 µg/mL
[5]
  IC50, pseudovirus neutralization: 23 µg/mL
[6]
  IC50 (ug/ml), pseudovirus neutralization: > 10 µg/mL
[7]
  IC50 (ug/ml), pseudovirus neutralization: > 10 µg/mL
[8]
  IC50, pseudovirus neutralization: 0.513 µg/mL
[9]
  IC50 (ug/ml), pseudovirus neutralization: > 10 µg/mL
[10]
  IC50, pseudovirus neutralization: 0.38 µg/mL
[11]
  IC50, pseudovirus neutralization: > 50 µg/mL
[12]
  IC50 (ug/ml), pseudovirus neutralization: > 10 µg/mL
[13]
  IC50 (ug/ml), pseudovirus neutralization: > 10 µg/mL

## 1496_C09 (PG9) (TCN-109) (antibody)
[16]
  IC50 (µg/mL), pseudovirus neutralization: 0.038 µg/mL
[19]
  IC50 (µg/mL), single-round pseudovirus neutralization: 0.019 µg/mL
[20]
  IC50, pseudovirus neutralization: 0.2 µg/mL
[21]
  IC50 (µg/mL), pseudovirus neutralization: 0.06 µg/mL
[1]
  IC50 (µg/ml), pseudovirus neutralization: 0.56 µg/mL
[22]
  IC50 (µg/mL), pseudovirus neutralization: 0.148 µg/mL
[23]
  IC50, pseudovirus neutralization: 0.533 µg/mL
[24]
  IC50 (µg/mL), pseudovirus neutralization: 0.227 µg/mL
[25]
  IC50: 0.023 µg/mL
[17]
  IC50 (µg/mL), pseudovirus neutralization: 0.012 µg/mL
[26]
  IC50, pseudovirus neutralization: 1.05 µg/mL
[18]
  IC50 (µg/mL), pseudovirus neutralization: 20.2 µg/mL
[27]
  IC50 neutralization: 0.048 µg/mL

## 4858_P08 (PGT-123) (antibody)
[14]
  neutralization IC50: 3.37 µg/mL
[15]
  neutralization IC50: 0.149 µg/mL
[28]
  IC50 (ug/ml), neutralizing activity: 0.215 µg/mL
  IC50, pseudovirus neutralization: 0.215 µg/mL
  IC80, pseudovirus neutralization: 0.678 µg/mL
  IC90 (pseudovirus neutralization): 1.31 µg/mL
  IC95, pseudovirus neutralization: 2.33 µg/mL
[29]
  IC50 (ug/ml), neutralizing activity: 0.0283 µg/mL
  IC50, pseudovirus neutralization: 0.0283 µg/mL
  IC80, pseudovirus neutralization: 0.0904 µg/mL
  IC90 (pseudovirus neutralization): 0.178 µg/mL
  IC95, pseudovirus neutralization: 0.332 µg/mL

## PGT-121 (antibody)
[30]
  EC50: 0.2 µg/mL
[31]
  EC50: 0.2 µg/mL
[32]
  Fold IC50 increase relative to wild-type: 0.6 fold
[33]
  Fold IC50 increase relative to wild-type: 0.7 fold
[34]
  Fold IC50 increase relative to wild-type: 1.4 fold
[35]
  Fold IC50 increase relative to wild-type: 0.8 fold
[36]
  Fold IC50 increase relative to wild-type: 1.3 fold
[25]
  IC50 (µg/mL), pseudovirus neutralization: 0.006 µg/mL
[37]
  Fold IC50 increase relative to wild-type: 0.2 fold
[38]
  Fold IC50 increase relative to wild-type: 1.9 fold
[39]
  Fold IC50 increase relative to wild-type: 1.7 fold
[27]
  IC50 neutralization: 0.0082 µg/mL
[40]
  Fold IC50 increase relative to wild-type: 2.5 fold

## 2F5 (antibody)
[1]
  IC50 (µg/ml), pseudovirus neutralization: 4.57 µg/mL
